Laboratory results as given in patent US20220249563A1 (LEGEND BIOTECH IRELAND, published 2022).

Biological target: T1, extracellular domain of human DLL3 protein (aa27-466) having an N-terminal FLAG tag (AdipoGen, AG-40B-0151) (human, UniProt Q9NYJ7 27-466)
T1 construct: range 27-466; also called DLL3 ECD protein
T1 sequence (looked up): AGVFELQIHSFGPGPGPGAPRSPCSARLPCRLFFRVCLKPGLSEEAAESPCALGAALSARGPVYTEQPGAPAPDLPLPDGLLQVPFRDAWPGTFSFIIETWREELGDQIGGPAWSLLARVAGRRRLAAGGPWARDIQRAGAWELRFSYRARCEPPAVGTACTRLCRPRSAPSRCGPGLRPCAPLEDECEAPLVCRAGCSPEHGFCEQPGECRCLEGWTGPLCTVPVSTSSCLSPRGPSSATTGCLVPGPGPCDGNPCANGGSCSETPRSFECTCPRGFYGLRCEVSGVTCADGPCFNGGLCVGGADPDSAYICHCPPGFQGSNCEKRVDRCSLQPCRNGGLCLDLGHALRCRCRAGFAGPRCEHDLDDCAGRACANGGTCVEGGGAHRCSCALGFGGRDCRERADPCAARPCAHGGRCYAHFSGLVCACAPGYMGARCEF
Assay: ELISA (protein), FACS (cells)

| Binder | binding result |
| --- | --- |
| AS64124 (VHH, camel sdAb; crude E. coli supernatant) VHH: QVKLVESGGGSVQTGGSLRLSCAVSTYTPSNNYMGWFRQAPGKEREGVAAIATIGGTTRYADSVKGRFTISQDGAKNTIYLQMNGLKPEDTAMYYCAAGRPYSLPLPLPLESGAYRYWGQGTQVTVSS | binds |
| AS68170 (VHH, camel sdAb; crude E. coli supernatant) VHH: QVQLVESGGGSVQAGGSLRLSCTASGYTYRSNCMGWFRQAPGKEREGVATIYTGGGRNLYYADSVKGRFTISRDNAKNTLYLQMNSLKPEDSARYYCAAASDVAVGVNSCGGRTAGFDAWGQGTQVTVSS | binds |
| AS64583 (VHH, camel sdAb; crude E. coli supernatant) VHH: EVQLAESGGGLVQAGGSLRLSCTASGFTIAVYTMGWFRQAPGKEREGISCTSWAGGRTYTADSVKGRFTISRDNAKNTLYLQMNSLKPEDTAMYYCAAKAHPDCSGDWSPSGYEYWGQGTQVTVSS | binds |
| AS68121 (VHH, camel sdAb; crude E. coli supernatant) VHH: EVQLAESGGGSVQAGGSLRLSCDASGYTYSRNCMGWFRQAPGKEREGVAAFYTDYIRFGRTYYADSVKGRFTIFQDNAKNTVYLQMNSLKPEDTAMYYCAADPGSRTDDSCGTSYNKGNFGYWGQGTQVTVSS | binds |
| AS64276 (VHH, camel sdAb; crude E. coli supernatant) VHH: QVHLMESGGGSVQAGGSLSLSCVVSGYTGSSRCMAWFRQAPGKEREAVAQIFTGRGTTGYADSVKGRFTISQDNAKNTVYLRMNSLRPEDTAIYYCAASLGPGRGACGYNYWGQGTQVTVSS | binds |
| AS68270 (VHH, camel sdAb; crude E. coli supernatant) VHH: QVQLAESGGGSVQAGGSLRLSCVASGYPSSTYYMLSMAWFRQAPGKEREGVAAITSGTGSTSYADSVKDRFTISKDYANNTLYLHINNLKPEDTAMYYCAAASGWIVPSRSLTANLYRYWGQGTQVTVSS | binds |
| AS64118 (VHH, camel sdAb; crude E. coli supernatant) VHH: QVQLAESGGGSVQAGGSLRLSCAASGYTYSACRMAWYRQAPGKERELVSFINSAGSTYYADSVKGRFAISRDNAKTTVYLQMNALKAEDTAIYYCNTWDSSCRFQYWGQGTQVTVSS | binds |
| AS64605 (VHH, camel sdAb; crude E. coli supernatant) VHH: QVKLVESGGGSVQAGGSLRLSCAVSRYPYSSICMGWFRQAPGKESEGVARIYTGTGSTWYTDSVKGRFTIARDNAQNTVYLQMNSLKPEDTAMYYCAARSNSYSYSSCDYGPLTRGGYNFWGQGTQVTVSS | binds |
| AS64475 (VHH, camel sdAb; crude E. coli supernatant) VHH: QVQLQESGGGSVQAGGSLRLSCAASGYTWSRNWMGWFRQAPGKEREGFATITISGGSTWYADSVKGRFTISLDNAGNTVYLQMNSLKPEDTAMYYCAARDTARTYWGQGTQVTVSS | binds |
| AS64513 (VHH, camel sdAb; crude E. coli supernatant) VHH: EVQLVESGGGSVQAGGSLRLSCVASDYPYIDNCMGWFRQGPGKEREGVAAACTGGGSTYYADSVKGRFTISRDNAKNTVYLQMNSLKPEDTDVYYCATGYYSGSGPGYLLPWRYNYWGQGTQVTVSS | binds |
| AS63964 (VHH, camel sdAb; crude E. coli supernatant) VHH: QVRLVESGGGSVQAGGSLRLSCSASGYTYSYNNMGWFRQAPGNEREGVAAISGGRFTAYADSVKGRFTISRDNAENTLYLQMNNLKPEDTGMYYCAAEVVDPTWGSRDQRRYKYWGQGTQVTVSS | binds |
| AS64163 (VHH, camel sdAb; crude E. coli supernatant) VHH: QVRLVESGGGSVQAGGSLRLSCAVSGYRYRWNCMAWFRQAPGKEREGVAAISTGSGSTYYAGSVKGRFTISQDNAKNMYLQMNSLKPEDTAMYYCAADPSVCPGGMWYSKEYRYWGQGTQVTVSS | binds |
| AS64120 (VHH, camel sdAb; crude E. coli supernatant) VHH: QVRLVESGGGSVQAGGSLRLSCETSRYIYGNNCMAWFRQAPGKEREGVASIYPAGGRPYYADSVKGRFTISQDNAKNTVYLQMDSLKPEDTAMYYCAARSFSIADCATQSGITRSNFAYWGQGTQVTVSS | binds |
| AS64093 (VHH, camel sdAb; crude E. coli supernatant) VHH: QVHLVESGGGSVQAGGSLRLSCATSRYIYGNNCMAWFRQAPGKEREGVASIYPAGGRTYYADSVKGRFTISQDNAKNTVYLQIDSLKPEDTAMYYCAARSFSIGVCATQSGITWSNFAYWGQGTQVTVSS | binds |
| AS63951 (VHH, camel sdAb; crude E. coli supernatant) VHH: QVHLMESGGGSVQAGGSLRLACETSRDIYGNNCMAWFRQAPGKEREGVASIYPAGGRPYYADSVKGRFTISQDNAKNTVYLQMDSLKPEDTAMYYCAARSFSIAVCATRSGITRSNFAYWGQGTQVTVSS | binds |
| AS64594 (VHH, camel sdAb; crude E. coli supernatant) VHH: QVHLVESGGGSVQAGGSLRLSCAASGYTYNSNYMGWFRQAPGKEREGVALIYTGGGSTYYADSVKGRFTISRDNAKNTVYLQMNSLKPEDTAMYYCSVRTQTRNYWGQGTQVTVSS | binds |
| AS64135 (VHH, camel sdAb; crude E. coli supernatant) VHH: QVKLVESGGGSVQAGGSLRLSCVASTSTYCRYYMRWYRQAPGKEREFVSAMQPDGTTSYSDSVKGRFTMSQDRANNMLYLQMNSLRPEDTAMYYCKRDPMGGSRTPCTSAWGQGTQVTVSS | binds |
| AS64336 (VHH, camel sdAb; crude E. coli supernatant) VHH: QVQLVESGGGSVQAGGSLRLSCTTSGRTYSSCSMGWYRQAPGKERELVSHIFSDGSRYYADSVKGRFTISQDNAKNTVYLQMNSLKPEDTAMYYCNRRTGWAPRCAVPGYWGQGTQVTVSS | binds |
| AS63984 (VHH, camel sdAb; crude E. coli supernatant) VHH: QVKLVESGGGSVQAGGSLRLSCAASGYTYSSNFMGWFRQAPGKEREGVATIVSGGGTTYYADSVRGRFTISQDNAKNTVYLQMNSLKPEDTAMYYCAAGGPVTNAPRWYPLRPPGYNYWGQGTQVTVSS | binds |
| AS64207 (VHH, camel sdAb; crude E. coli supernatant) VHH: EVQLVESGGGSVQAGGSLRLSCAASGYTYSSNFMGWFRQAPGKEREGVATIVSGGGTTYYADSVRGRFTISQDNAKNTVYLQMNSLKPEDTAMYYCAAGGPPTNGAKWYPLRPPGYNYWGQGTQVTVSS | binds |
| AS64116 (VHH, camel sdAb; crude E. coli supernatant) VHH: QVKLVESGGGSVQAGGSLRLSCAASGYIYSCVGWFRQAPGKEREGVAGISTGGGGTVYADSVKGQFTISRDNAKNTVYLQMDSLKPEDTAMYYCAADRWNSFANCGAWGRYTYWGQGTQVTVSS | binds |
| AS63948 (VHH, camel sdAb; crude E. coli supernatant) VHH: QVQLVESGGGSVQAGGSLRLSCTASGYTYRYLYMGWFRQTPGKEREGVACIYTGSGSTGYADSVKGRFTISQDNAENTVYLQMNSLKPEDTAMYYCAAASPRWGGTCRRWSEYNYWGQGTQVTVSS | binds |
| AS64473 (VHH, camel sdAb; crude E. coli supernatant) VHH: QVRLVESGGGSVQAGGSLRLSCTASGYTYRYLYMAWFRQTPGKEREGVACIYTGSGTTGYADSVKGRFTISQDNAKNTVYLQMNSLNAEDTAMYYCAASSPQWGGTCRRWSEYNYWGQGTQVTVSS | binds |
| AS64154 (VHH, camel sdAb; crude E. coli supernatant) VHH: QVQLKESGGGSVQAGGSLRLSCTASGYTYRYLYMGWFRQTPGKEREGVACIYTGSGSTGYADSVKGRFTISQDNAKNTVYLQMNNLKPEDTAMYYCAASSPRWGGTCRRWSQYNYWGQGTQVTVSS | binds |
| AS64182 (VHH, camel sdAb; crude E. coli supernatant) VHH: QVHLMESGGGSVQAGGSLRLSCTASGQTSRYLYMGWFRQTPGKEREGVACIYTGSGSTGYADSVKGRFTISQDNAKNTVYLQTNSLKPEDTAMYYCAASSPHWGGTCRRWSEYKYWGQGTQVTVSS | binds |
| AS64183 (VHH, camel sdAb; crude E. coli supernatant) VHH: QVHLVESGGGSVQAGGSLRLSCAASGHTYSANCMAWFRRAPGKEREWVASVYTDDDSTMYTDSVKGRFTIFQDNAKNTVYLQMNSLKPEDTGMYICAADLSGGPAGCGYTHWGQGTQVTVSS | binds |
| AS63930 (VHH, camel sdAb; crude E. coli supernatant) VHH: EVQLAESGGGSVQAGGSLRLSCAASGYTYSGNYMAWFRQAPGNEREGVAVVYNIDGGGRFTTYADSVKGRFTISRGNDKNTVYLQMNSLKPEDSGMYYCAAEVADPTWGSRDQRRYKYWGQGTQVTVSS | binds |
| AS64346 (VHH, camel sdAb; crude E. coli supernatant) VHH: QVHLVESGGGSVQAGGSLRLSCAASGYTYFMGWFRQAPQKEREWVATIGTGDIFNGAAYYVDSVKGRFAISQDNAKNTVYLQMNSLKPEDTAVYVCAAVQSKSSNYVLRDASTYNYWGQGTQVTVSS | binds |
| AS64562 (VHH, camel sdAb; crude E. coli supernatant) VHH: EVQLVESGGGSVQAGGSLRLSCAASGYTARRDFMAWFRQVPGKEREGVAVIHTGGDTTYYADSVKGRFTISRDNAQNIMNLQMNSLKPEDTAMYYCAAGFRPRGGGYTGDVLAQAAAYNYWGQGTQVTVSS | binds |
| AS64420 (VHH, camel sdAb; crude E. coli supernatant) VHH: EVQLVESGGGSVQAEGSLRLSCAASGDTSRSVWMGWARQVPGKEREVVATISTAGGSTWYTDSVKGRFTISQDNAKNTVYLQMNSLKPEDTAIYYCAARSRYATYWGQGTQVTVSS | binds |
